# In publication PMC6159516 (Nucleic Acids Research, 2018):
# Residue numbers refer to the chain shown, from its start. In names and notes the source's numbering stands.
# T1: FANCJ-wild type (WT) with a C-terminal FLAG tag (human), Q9BX63
# T1 chain: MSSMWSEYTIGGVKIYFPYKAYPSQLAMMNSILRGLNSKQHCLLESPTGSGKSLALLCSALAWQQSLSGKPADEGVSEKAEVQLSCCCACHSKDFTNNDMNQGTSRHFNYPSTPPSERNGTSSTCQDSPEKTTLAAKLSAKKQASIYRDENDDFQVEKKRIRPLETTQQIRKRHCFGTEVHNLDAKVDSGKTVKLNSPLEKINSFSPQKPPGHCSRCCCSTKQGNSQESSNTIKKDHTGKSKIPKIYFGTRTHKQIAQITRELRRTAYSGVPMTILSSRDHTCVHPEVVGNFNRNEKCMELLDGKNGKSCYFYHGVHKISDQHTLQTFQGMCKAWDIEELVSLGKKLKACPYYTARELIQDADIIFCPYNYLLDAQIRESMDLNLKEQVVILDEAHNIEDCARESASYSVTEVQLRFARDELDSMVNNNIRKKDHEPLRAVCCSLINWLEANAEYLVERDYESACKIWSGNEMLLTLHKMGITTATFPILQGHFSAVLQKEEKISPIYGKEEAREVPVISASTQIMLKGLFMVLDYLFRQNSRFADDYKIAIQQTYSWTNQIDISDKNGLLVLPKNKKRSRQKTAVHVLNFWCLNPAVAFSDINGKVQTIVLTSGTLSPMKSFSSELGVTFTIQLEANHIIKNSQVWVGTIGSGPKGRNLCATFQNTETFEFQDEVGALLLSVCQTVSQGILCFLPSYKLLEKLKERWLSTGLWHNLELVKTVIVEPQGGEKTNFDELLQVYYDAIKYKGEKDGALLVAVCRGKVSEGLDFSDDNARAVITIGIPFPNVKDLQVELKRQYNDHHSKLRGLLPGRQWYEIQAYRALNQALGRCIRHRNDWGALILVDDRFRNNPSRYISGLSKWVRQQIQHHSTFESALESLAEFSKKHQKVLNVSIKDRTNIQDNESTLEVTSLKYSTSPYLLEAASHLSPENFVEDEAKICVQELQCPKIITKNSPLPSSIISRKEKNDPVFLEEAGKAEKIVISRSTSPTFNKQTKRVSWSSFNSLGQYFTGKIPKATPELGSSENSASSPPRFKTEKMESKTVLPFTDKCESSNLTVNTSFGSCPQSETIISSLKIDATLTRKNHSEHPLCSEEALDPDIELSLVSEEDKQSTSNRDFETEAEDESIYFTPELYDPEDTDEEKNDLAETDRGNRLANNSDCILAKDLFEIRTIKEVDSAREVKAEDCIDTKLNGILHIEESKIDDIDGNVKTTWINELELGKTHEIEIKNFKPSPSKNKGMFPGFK
# T2: FANCJ-WT (Homo sapiens, UniProt Q9BX63 1-1249)
# T2 sequence: T1 chain
# B1: FANCJ-wild type (WT) with a C-terminal FLAG tag, Q9BX63 1-1249 (enzyme)
# chain: T1 chain
# B2: FANCJ-H396D with a C-terminal FLAG tag (enzyme, human, UniProt Q9BX63 1-1249, looked up)
# chain: T1 chain with H396D
# What was measured:
# [1] = biological target: FANCJ-R707C with a C-terminal FLAG tag (human) (UniProt Q9BX63)
# [2] = biological target: T1, FANCJ-wild type (WT) with a C-terminal …; assay: SEC; purified recombinant FANCJ applied to a Superdex-200 column on an AKTA FPLC, UV detection, calibrated with molecular mass markers; dimer and monomer peaks; settings: remark: other sources report otherwise
# [3] = biological target: the molecule itself; assay: as above
# [4] = biological target: T2, FANCJ-WT; assay: EMSA; 5 mM Mg2+, no ATP; EMSA: 40 mM Tris-HCl pH 7.4, 25 mM KCl, 5 mM MgCl2, 2 mM DTT, 2% glycerol, 100 ng/ul BSA, no ATP, 0.5 nM DNA, 24 C 30 min; native 5% PAGE in 1x TBE at 4 C
molecule,measurement,setting,value
RPA (complex),"percent of 34 bp forked duplex DNA substrate (0.5 nM) unwound by FANCJ-R707C (20 nM) with increasing RPA, up to 8 nM, 30°C, 15 min (stimulation of helicase activity by RPA)",[1],45%
B1,stoichiometry N,[2],2
B2,stoichiometry N,[3],2
TTTTTTTTTTTTTTTTTTTTTTCCCAGTAAAACGACGGCCAGTGC (ssDNA) [single-stranded 45-mer (DC26)],binding result,[4],binds
